Assay results taken from patent publication US20200316121A1 (published 2020).

T1: p53 wild type (Y220) peptide on HLA-DRB1*04:01:01 (human)
T1 peptide: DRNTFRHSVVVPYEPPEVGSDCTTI

T2: p53 Y220C peptide on HLA-DRB1*04:01:01 (human)
T2 peptide: RNTFRHSVVVPCE

T3: p53 R248W peptide on HLA-A*68:01 (human)
T3 peptide: SSCMGGMNWR


What was measured:
Assay in all cases: activation reporter or marker
[1] = molecular target: T1, p53 wild type (Y220) peptide on …
[2] = molecular target: T2, p53 Y220C peptide on HLA-DRB1*04:01:01
[3] = molecular target: T3, p53 R248W peptide on HLA-A*68:01

Row | binding result [1] | binding result [2] | binding result [3] | Binder
1 | no recognition | recognises | – | 4259-F6-TCR (TCR, V domains shown) Valpha: QKEVEQNSGPLSVPEGAIASLNCTYSDRGSQSFFWYRQYSGKSPELIMFIYSNGDKEDGRFTAQLNKASQYVSLLIRDSQPSDSATYLCAWNSGGSNYKLTFGKGTLLTVNP Vbeta: NAGVTQTPKFRVLKTGQSMTLLCAQDMNHEYMYWYRQDPGMGLRLIHYSVGEGTTAKGEVPDGYNVSRLKKQNFLLGLESAAPSQTSVYFCASSYSQAWGQPQHFGDGTRLSIL
2 | – | – | recognises | 4266-TCR2 (TCR, V domains shown) Valpha: GQNIDQPTEMTATEGAIVQINCTYQTSGFNGLFWYQQHAGEAPTFLSYNVLDGLEEKGRFSSFLSRSKGYSYLLLKELQMKDSASYLCAVYTGGFKTIFGAGTRLFVKA Vbeta: EAGVAQSPRYKIIEKRQSVAFWCNPISGHATLYWYQQILGQGPKLLIQFQNNGVVDDSQLPKDRFSAERLKGVDSTLKIQPAKLEDSAVYLCASNLGGGSTDTQYFGPGTRLTVL
3 | – | – | recognises | 4266-TCR4 (TCR, V domains shown) Valpha: GQNIDQPTEMTATEGAIVQINCTYQTSGFNGLFWYQQHAGEAPTFLSYNVLDGLEEKGRFSSFLSRSKGYSYLLLKELQMKDSASYLCAVYPGGSQGNLIFGKGTKLSVKP Vbeta: EAGVAQSPRYKIIEKRQSVAFWCNPISGHATLYWYQQILGQGPKLLIQFQNNGVVDDSQLPKDRFSAERLKGVDSTLKIQPAKLEDSAVYLCASSLGTGSTDTQYFGPGTRLTVL
4 | – | – | recognises | 4266-TCR3 (TCR, V domains shown) Valpha: GQNIDQPTEMTATEGAIVQINCTYQTSGFNGLFWYQQHAGEAPTFLSYNVLDGLEEKGRFSSFLSRSKGYSYLLLKELQMKDSASYLCAFYYGGSQGNLIFGKGTKLSVKP Vbeta: GAGVSQSPRYKVAKRGQDVALRCDPISGHVSLFWYQQALGQGPEFLTYFQNEAQLDKSGLPSDRFFAERPEGSVSTLKIQRTQQEDSAVYLCASSFGSGSTDTQYFGPGTRLTVL
